Measurements taken from patent US20110086089A1, “USE OF P27KIP1 FOR THE PREVENTION AND TREATMENT OF HEART FAILURE” (UNIVERSITY HEALTH NETWORK, priority 2008, published 2011).
Marks after values point to notes of the source that are not given here.

Tests used:
p27 KO mice = test: Chronic Ang II infusion for 14 days with daily TAT.protein injection, p27 KO mice; type: in vivo; details: for FS / LVEDD / LVEF / LVESD / PWD: p27 KO, echocardiography at 14 days
Procedure: (A) Heart-weight corrected for body-weight (left panel) and Masson-stain of myocardial cross sections (right panel). Mean±s.e.m., n=6-8. *P<0.01 vs sham saline. **P<0.01 vs Ang II. Scale bar, 2 mm. (B) Cell size analysis of adult cardiac myocytes isolated from 8-weeks-old mice. One hundred cells from three different mice were analyzed per group. Mean±s.e.m. *P<0.01 vs sham saline. **P<0.01 vs Ang II. (C) Determination of ANF/BNP mRNA levels by qRT-PCR. Mean±s.e.m., n=6-8. *P<0.01 vs sham saline. **P<0.01 vs Ang II. (D) CK2-alpha-prime-dependent kinase activity determined in whole left ventricular tissue samples. One typical result of two independent experiments is shown. (E, F) Ang II action induces apoptosis in p27^−/− mice. (E) Quantification of apoptotic cardiac myocytes (white arrowheads) by in situ TUNEL and GATA4 immunofluorescence histochemistry of left ventricular specimen. Mean±s.e.m., n=4. *P<0.01 vs sham saline. **P<0.05 vs sham saline. #P<0.01. (F) Determination of caspase 3 activity in total left ventricular heart tissue samples. Mean±s.e.m., n=4. *P<0.05 vs sham saline. #P<0.01. (G) Model for CK2-alpha-prime-dependent regulation of cardiac hypertrophy through phosphorylation of p27. Hypertrophic signals stimulate CK2-alpha-prime kinase that phosphorylates p27 at S83 and T187. Phosphorylation of p27 impairs its ability to bind to and inhibit […] activity. Subsequently, p27 is proteasomally degraded allowing hypertrophic growth to proceed.
Next, the inventors examined the effect of transduced proteins on cardiac hypertrophy in p27^−/− mice. Elimination of p27 gene function in these animals completely abrogated the ability of kd.CK2-alpha-prime to block cardiac hypertrophy (FIG. 6A-D). In contrast, hypertrophic responses to Ang II were abolished by p27deltaPi injections. Thus, reconstitution of p27 protein abundance in the myocardium of p27^−/− mice was accompanied by inhibition of Ang II action. Moreover, the inventors observed a marked increase in the number of TUNEL-positive cardiomyocyte nuclei in Ang II-infused p27^−/− mice (FIG. 6E,F) as compared to the WT controls. […] This was in direct contrast to the effect seen by ectopic kd.CK2-alpha-prime consistent with the inventors' previous work showing that CK2 is cardioprotective^73,74.
(§1) Spontaneously beating cardiomyocytes from heart ventricles of neonatal rats were cultured and subjected to treatment with angiotensin II (Ang II). DMAT (2-dimethylamino-4,5,6,7-tetrabromo-1H-benzimidazol), DMSO, lactacystin and LLM were obtained from Calbiochem. Ang II was purchased from Sigma. Animal usage was in accordance with approved institutional animal care guidelines. Age-matched male WI C57BL/6 and p27^−/− mice were used in this study. For results shown in FIGS. 1 to 9: Ang II was chronically infused subcutaneously by osmotic pumps (model 2000, Alzet) at a dose of 1.4 μg/kg per minute for 14 days. TAT.proteins (10 mg/kg) were injected intraperitoneally once daily for 14 days. For results shown in FIGS. 10 to 12: Ang II was chronically infused subcutaneously by osmotic pumps (model 2000, Alzet) at a dose of 0.7 μg/kg per minute for 16 days. TAT.proteins (20 mg/kg) were injected intraperitoneally once daily for 8 days starting at day 8. Thoracic aortic banding (TAB) and pressure gradient measurements were performed as described^39.

WT mice = test: Chronic Ang II infusion for 14 days with daily TAT.protein injection, WT mice; type: in vivo; details: for FS / LVEDD / LVEF / LVESD / PWD: WT, echocardiography at 14 days
Description: FIG. 5 is a series of graphs, blots and cell stainings showing CK2-alpha-prime is important for Ang II action in vivo. […] Transduction of recombinant active CK2-alpha-prime evokes cardiac hypertrophy in the absence of Ang II. (A) Heart-weight corrected for body-weight (left panel) and Masson-stain of myocardial cross sections (right panel). Mean±s.e.m., n=6-8. #P<0.01 vs sham saline. *P<0.01 vs sham saline. Scale bar, 2 mm. (B) Cell size analysis of adult cardiac myocytes isolated from 8-weeks-old mice. One hundred cells from three different mice were analyzed per group. Mean±s.e.m. #P<0.01 vs sham saline. *P<0.01 vs sham saline. **P<0.01 vs Ang II. (c) Determination of ANF/BNP mRNA levels by qRT-PCR. Mean±s.e.m., n=6-8. *P<0.05 vs sham saline. **P<0.05 vs Ang II. #P<0.05 vs sham saline. (D) Visualization of ectopic TAT-conjugated p27deltaPi by indirect immunofluorescence microscopy employing anti-His tag antibodies. Scale bar, 200 μm. (E) Left ventricular extracts (2-3 mg) were subjected to anti-CK2-alpha-prime immunocomplex kinase assays employing histone H1 substrate. Aliquots of kinase reactions were subjected to immunoblotting using antibodies as indicated on the left (top and middle panel). Levels of endogenously expressed or transduced proteins in total left ventricular heart tissue samples (60 μg) were analyzed by immunoblotting (bottom panel). Experiments to (E) were done twice with similar results.
To define whether CK2-alpha-prime -directed p27 turnover plays a role in vivo, the inventors chronically infused Ang II^72 and intraperitoneally injected recombinant TAT-conjugated CK2-alpha-prime and p27 variants in WT and p27^−/− mice (FIG. 9). […] These mice had normal LVEDD and LVESD when compared to Ang II-infused littermates (Table 3). […] CK2-alpha-prime activity and p27 destabilization were similar to their non-transduced Ang II-treated siblings (FIG. 5E).
as §1

[1] = Ang infusion 1.4 μg/kg per minute 14 days, TAT.protein 10 mg/kg i.p. once daily
[2] = saline infusion, TAT.protein 10 mg/kg i.p. once daily 14 days

B1: kd.CK2-α′: catalytically-inactive kinase-dead CK2-alpha-prime, point mutation K69M; TAT-conjugated protein in mice, lentivirally expressed in cardiomyocytes (protein)
chain: MPGPAAGSRARVYAEVNSLRSREYWDYEAHVPSWGNQDDYQLVRKLGRGKYSEVFEAINITNNERVVVMILKPVKKKKIKREVKILENLRGGTNIIKLIDTVKDPVSKTPALVFEYINNTDFKQLYQILTDFDIRFYMYELLKALDYCHSKGIMHRDVKPHNVMIDHQQKKLRLIDWGLAEFYHPAQEYNVRVASRYFKGPELLVDYQMYDYSLDMWSLGCMLASMIFRREPFFHGQDNYDQLVRIAKVLGTEELYGYLKKYHIDLDPHFNDILGQHSRKRWENFIHSENRHLVSPEALDLLDKLLRYDHQQRLTAKEAMEHPYFYPVVKEQSQPCADNAVLSSGLTAAR
modifications: left off: small tags and cut ends
notes: TAT-conjugated protein in mice, lentivirally expressed in cardiomyocytes
With B1 the “cardiac hypertrophy / hypertrophic responses to Ang II” value (p27 KO mice; Ang II-infused p27−/− mice, TAT.proteins 10 mg/kg i.p. once daily) was “fails to inhibit cardiac hypertrophy”, the FS (p27 KO mice; [1]) was 52 ± 1.9* % and the LVEDD (p27 KO mice; [1]) was 4.5 ± 0.1* mm. The LVEF (p27 KO mice; [1]) was 83 ± 2.8* %, the LVESD (p27 KO mice; [1]) was 2.1 ± 0.2* mm and the PWD (p27 KO mice; [1]) was 1.2 ± 0.1* mm. The FS (p27 KO mice; [2]) was 39 ± 2.6%, the LVEDD (p27 KO mice; [2]) was 3.8 ± 0.2 mm and the LVEF (p27 KO mice; [2]) was 69 ± 2.3%. For the same molecule, the LVESD (p27 KO mice; [2]) was 1.3 ± 0.1 mm, the PWD (p27 KO mice; [2]) was 0.7 ± 0.2 mm and the “cardiac hypertrophy to Ang II (heart/body weight ratio, myocyte area, ANF/BNP mRNA)” value (WT mice; Ang II-treated WT mice, TAT.proteins 10 mg/kg i.p. once daily 14 days) was “abrogate cardiac hypertrophy”. For the same molecule, the “Ang II-induced CK2-alpha-prime activity (left ventricular immunocomplex kinase assay)” value (WT mice; Ang II-treated WT mice, left ventricular extracts) was “abolished”, the FS (WT mice; [1]) was 38 ± 2.6** % and the LVEDD (WT mice; [1]) was 3.8 ± 0.2** mm. The LVEF (WT mice; [1]) was 71 ± 2.3** %, the LVESD (WT mice; [1]) was 1.3 ± 0.1** mm and the PWD (WT mice; [1]) was 0.7 ± 0.2** mm. For the same molecule, the LVEDD (WT mice; [2]) was 3.7 ± 0.2 mm, the LVEF (WT mice; [2]) was 71 ± 2.4% and the LVESD (WT mice; [2]) was 1.4 ± 0.2 mm. The PWD (WT mice; [2]) was 0.7 ± 0.1 mm and the FS (WT mice; saline infusion, TAT.protein 10 mg/kg i.p. once daily 14 days, 8-weeks of age) was 40 ± 1.5%.
